Data reported in patent US20250333474A1.

Target: T1, H-2K^b of MHC class I of MutuDC1940 cells (without loaded OVA^257-264 peptide) (mouse)
T1 chain 1: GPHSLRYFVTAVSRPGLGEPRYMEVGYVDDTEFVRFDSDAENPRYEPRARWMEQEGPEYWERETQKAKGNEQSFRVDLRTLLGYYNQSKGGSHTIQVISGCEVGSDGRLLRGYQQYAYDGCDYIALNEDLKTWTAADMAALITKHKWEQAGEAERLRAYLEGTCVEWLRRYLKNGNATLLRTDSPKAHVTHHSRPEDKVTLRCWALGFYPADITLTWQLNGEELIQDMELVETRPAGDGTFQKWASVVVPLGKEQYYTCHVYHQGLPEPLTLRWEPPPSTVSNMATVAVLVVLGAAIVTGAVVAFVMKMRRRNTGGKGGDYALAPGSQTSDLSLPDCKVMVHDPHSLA
T1 chain 2: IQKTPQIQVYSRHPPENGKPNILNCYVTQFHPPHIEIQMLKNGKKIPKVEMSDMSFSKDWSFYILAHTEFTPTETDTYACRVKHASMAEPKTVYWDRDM
Assay: peptide loading on MutuDC1940 cells for 24 h, read by 25D1.16 staining and flow cytometry
Conditions: remark: other sources report otherwise

- saturate peptide concentration: 2 µg/mL
B1: OVA^257-264 antigen peptide (peptide)
peptide: SIINFEKL
